{"source": "patent US20240287154A1", "about": "“MC3R AGONIST PEPTIDES” (The Regents of the University of Michigan, priority 2021, published 2024)", "molecular_target": "human MC3R (human, UniProt P41968 1-323)", "sequence (P41968 whole entry)": "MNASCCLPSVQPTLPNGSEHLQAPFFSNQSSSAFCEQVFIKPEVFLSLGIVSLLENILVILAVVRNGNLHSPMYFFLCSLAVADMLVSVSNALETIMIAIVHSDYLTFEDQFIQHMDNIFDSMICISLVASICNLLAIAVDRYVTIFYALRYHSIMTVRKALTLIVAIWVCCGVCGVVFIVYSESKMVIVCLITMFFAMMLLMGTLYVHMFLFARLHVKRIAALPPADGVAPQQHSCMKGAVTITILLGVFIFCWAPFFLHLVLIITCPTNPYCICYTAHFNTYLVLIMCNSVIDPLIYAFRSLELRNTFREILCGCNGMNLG", "assay": "cell-based or functional assay", "note": "Non-standard residues stand in square brackets, D forms with d. Phe(4-I) = N[C@@H](Cc1ccc(I)cc1)C(=O)O; Nle = CCCC[C@H](N)C(=O)O; dAbu = CC[C@@H](N)C(=O)O; Aib = CC(C)(N)C(=O)O"}
{"binder": "Ac-[Nle][dA]HFR[dW]DRPG-OH (SMILES CCCC[C@H](NC(C)=O)C(=O)N[C@H](C)C(=O)N[C@@H](Cc1c[nH]cn1)C(=O)N[C@@H](Cc1ccccc1)C(=O)N[C@@H](CCCNC(=N)N)C(=O)N[C@H](Cc1c[nH]c2ccccc12)C(=O)N[C@@H](CC(=O)O)C(=O)N[C@@H](CCCNC(=N)N)C(=O)N1CCC[C@H]1C(=O)NCC(=O)O)", "note": "[CTX-1536]", "values": [{"measurement": "MC3R cAMP (EC50)", "result": 73, "unit": "nM"}, {"measurement": "MC3R selectivity (relative to MC4R)", "result": 72}]}
{"binder": "Ac-[Nle][dA]HFR[dW]F-NH2 (SMILES CCCC[C@H](NC(C)=O)C(=O)N[C@H](C)C(=O)N[C@@H](Cc1c[nH]cn1)C(=O)N[C@@H](Cc1ccccc1)C(=O)N[C@@H](CCCNC(=N)N)C(=O)N[C@H](Cc1c[nH]c2ccccc12)C(=O)N[C@@H](Cc1ccccc1)C(N)=O)", "note": "[CTX-1541]", "values": [{"measurement": "MC3R cAMP (EC50)", "result": 65.2, "unit": "nM"}, {"measurement": "MC3R selectivity (relative to MC4R)", "result": 9}]}
{"binder": "Ac-[Nle][dA]HFR[dW]KRFG-OH (SMILES CCCC[C@H](NC(C)=O)C(=O)N[C@H](C)C(=O)N[C@@H](Cc1c[nH]cn1)C(=O)N[C@@H](Cc1ccccc1)C(=O)N[C@@H](CCCNC(=N)N)C(=O)N[C@H](Cc1c[nH]c2ccccc12)C(=O)N[C@@H](CCCCN)C(=O)N[C@@H](CCCNC(=N)N)C(=O)N[C@@H](Cc1ccccc1)C(=O)NCC(=O)O)", "note": "[CTX-1533]", "values": [{"measurement": "MC3R cAMP (EC50)", "result": 14.2, "unit": "nM"}, {"measurement": "MC3R selectivity (relative to MC4R)", "result": 314}]}
{"binder": "Ac-[Nle][dA]HFR[dW]DAFG-OH (SMILES CCCC[C@H](NC(C)=O)C(=O)N[C@H](C)C(=O)N[C@@H](Cc1c[nH]cn1)C(=O)N[C@@H](Cc1ccccc1)C(=O)N[C@@H](CCCNC(=N)N)C(=O)N[C@H](Cc1c[nH]c2ccccc12)C(=O)N[C@@H](CC(=O)O)C(=O)N[C@@H](C)C(=O)N[C@@H](Cc1ccccc1)C(=O)NCC(=O)O)", "note": "[CTX-1534]", "values": [{"measurement": "MC3R cAMP (EC50)", "result": 38.8, "unit": "nM"}, {"measurement": "MC3R selectivity (relative to MC4R)", "result": 186}]}
{"binder": "Ac-[Nle][dA]HFR[dW]DRFV-OH (SMILES CCCC[C@H](NC(C)=O)C(=O)N[C@H](C)C(=O)N[C@@H](Cc1c[nH]cn1)C(=O)N[C@@H](Cc1ccccc1)C(=O)N[C@@H](CCCNC(=N)N)C(=O)N[C@H](Cc1c[nH]c2ccccc12)C(=O)N[C@@H](CC(=O)O)C(=O)N[C@@H](CCCNC(=N)N)C(=O)N[C@@H](Cc1ccccc1)C(=O)N[C@H](C(=O)O)C(C)C)", "note": "[CTX-1538]", "values": [{"measurement": "MC3R cAMP (EC50)", "result": 7.4, "unit": "nM"}, {"measurement": "MC3R selectivity (relative to MC4R)", "result": 1280}]}
{"binder": "Ac-[Nle][dA]HFR[dW]G-NH2 (SMILES CCCC[C@H](NC(C)=O)C(=O)N[C@H](C)C(=O)N[C@@H](Cc1c[nH]cn1)C(=O)N[C@@H](Cc1ccccc1)C(=O)N[C@@H](CCCNC(=N)N)C(=O)N[C@H](Cc1c[nH]c2ccccc12)C(=O)NCC(N)=O)", "note": "[CTX-1540]", "values": [{"measurement": "MC3R cAMP (EC50)", "result": 25.1, "unit": "nM"}, {"measurement": "MC3R selectivity (relative to MC4R)", "result": 11}]}
{"binder": "H-VMGHFR[dW]DRFG-OH", "note": "[CTX-1546]", "values": [{"measurement": "MC3R cAMP (EC50)", "result": 1.7, "unit": "nM"}, {"measurement": "MC3R selectivity (relative to MC4R)", "result": 51}]}
{"binder": "Ac-[Nle][dA]H[Phe(4-I)]R[dW]G-NH2 (SMILES CCCC[C@H](NC(C)=O)C(=O)N[C@H](C)C(=O)N[C@@H](Cc1c[nH]cn1)C(=O)N[C@@H](Cc1ccc(I)cc1)C(=O)N[C@@H](CCCNC(=N)N)C(=O)N[C@H](Cc1c[nH]c2ccccc12)C(=O)NCC(N)=O)", "note": "[CTX-1543]", "values": [{"measurement": "MC3R cAMP (EC50)", "result": 3.1, "unit": "nM"}, {"measurement": "MC3R selectivity (relative to MC4R)", "result": 202}]}
{"binder": "Ac-[Nle][Aib]H[Phe(4-I)]R[dW]G-NH2 (SMILES CCCC[C@H](NC(C)=O)C(=O)NC(C)(C)C(=O)N[C@@H](Cc1c[nH]cn1)C(=O)N[C@@H](Cc1ccc(I)cc1)C(=O)N[C@@H](CCCNC(=N)N)C(=O)N[C@H](Cc1c[nH]c2ccccc12)C(=O)NCC(N)=O)", "note": "[CTX-1545]", "values": [{"measurement": "MC3R cAMP (EC50)", "result": 51.6, "unit": "nM"}, {"measurement": "MC3R selectivity (relative to MC4R)", "result": 14}]}
{"binder": "Ac-[Nle][dA]HFR[dW][Nle]RFG-OH (SMILES CCCC[C@H](NC(C)=O)C(=O)N[C@H](C)C(=O)N[C@@H](Cc1c[nH]cn1)C(=O)N[C@@H](Cc1ccccc1)C(=O)N[C@@H](CCCNC(=N)N)C(=O)N[C@H](Cc1c[nH]c2ccccc12)C(=O)N[C@@H](CCCC)C(=O)N[C@@H](CCCNC(=N)N)C(=O)N[C@@H](Cc1ccccc1)C(=O)NCC(=O)O)", "note": "[CTX-1532]", "values": [{"measurement": "MC3R cAMP (EC50)", "result": 10.3, "unit": "nM"}, {"measurement": "MC3R selectivity (relative to MC4R)", "result": 184}]}
{"binder": "Ac-[Nle][dA]HFR[dW]DRAG-OH (SMILES CCCC[C@H](NC(C)=O)C(=O)N[C@H](C)C(=O)N[C@@H](Cc1c[nH]cn1)C(=O)N[C@@H](Cc1ccccc1)C(=O)N[C@@H](CCCNC(=N)N)C(=O)N[C@H](Cc1c[nH]c2ccccc12)C(=O)N[C@@H](CC(=O)O)C(=O)N[C@@H](CCCNC(=N)N)C(=O)N[C@@H](C)C(=O)NCC(=O)O)", "note": "[CTX-1537]", "values": [{"measurement": "MC3R cAMP (EC50)", "result": 25.5, "unit": "nM"}, {"measurement": "MC3R selectivity (relative to MC4R)", "result": 278}]}
{"binder": "Ac-[Nle][dA]HFR[dW][dF]RFG-OH (SMILES CCCC[C@H](NC(C)=O)C(=O)N[C@H](C)C(=O)N[C@@H](Cc1c[nH]cn1)C(=O)N[C@@H](Cc1ccccc1)C(=O)N[C@@H](CCCNC(=N)N)C(=O)N[C@H](Cc1c[nH]c2ccccc12)C(=O)N[C@H](Cc1ccccc1)C(=O)N[C@@H](CCCNC(=N)N)C(=O)N[C@@H](Cc1ccccc1)C(=O)NCC(=O)O)", "note": "[CTX-1531]", "values": [{"measurement": "MC3R cAMP (EC50)", "result": 356, "unit": "nM"}]}
{"binder": "Ac-[Nle][dA]HFR[dW]DKFG-OH (SMILES CCCC[C@H](NC(C)=O)C(=O)N[C@H](C)C(=O)N[C@@H](Cc1c[nH]cn1)C(=O)N[C@@H](Cc1ccccc1)C(=O)N[C@@H](CCCNC(=N)N)C(=O)N[C@H](Cc1c[nH]c2ccccc12)C(=O)N[C@@H](CC(=O)O)C(=O)N[C@@H](CCCCN)C(=O)N[C@@H](Cc1ccccc1)C(=O)NCC(=O)O)", "note": "[CTX-1535]", "values": [{"measurement": "MC3R cAMP (EC50)", "result": 6, "unit": "nM"}, {"measurement": "MC3R selectivity (relative to MC4R)", "result": 1590}]}
{"binder": "H-YV[Nle][dAbu]HFR[dW]D-NH2 (SMILES CCCC[C@H](NC(=O)[C@@H](NC(=O)[C@@H](N)Cc1ccc(O)cc1)C(C)C)C(=O)N[C@H](CC)C(=O)N[C@@H](Cc1c[nH]cn1)C(=O)N[C@@H](Cc1ccccc1)C(=O)N[C@@H](CCCNC(=N)N)C(=O)N[C@H](Cc1c[nH]c2ccccc12)C(=O)N[C@@H](CC(=O)O)C(N)=O)", "note": "[CTX-1131]", "values": [{"measurement": "MC3R cAMP (EC50)", "result": 6.6, "unit": "nM"}, {"measurement": "MC3R selectivity (relative to MC4R)", "result": 65}]}
{"binder": "Ac-[Nle][dA]HFR[dW][dF]-NH2 (SMILES CCCC[C@H](NC(C)=O)C(=O)N[C@H](C)C(=O)N[C@@H](Cc1c[nH]cn1)C(=O)N[C@@H](Cc1ccccc1)C(=O)N[C@@H](CCCNC(=N)N)C(=O)N[C@H](Cc1c[nH]c2ccccc12)C(=O)N[C@H](Cc1ccccc1)C(N)=O)", "note": "[CTX-1542]", "values": [{"measurement": "MC3R cAMP (EC50)", "result": 64.6, "unit": "nM"}, {"measurement": "MC3R selectivity (relative to MC4R)", "result": 15}]}
{"binder": "Ac-[Nle][dA]HFR[dW]-NH2", "note": "[CTX-1539]", "values": [{"measurement": "MC3R cAMP (EC50)", "result": 47.1, "unit": "nM"}, {"measurement": "MC3R selectivity (relative to MC4R)", "result": 16}]}
